Measured values published in patent US20120058906A1 (published 2012).
Each block holds one binder with its values, some of them ahead of it.

Key:
[1] = target: T1, rHuman Erythropoietin R/Fc Chimera, CF (R&D Systems Cat#963-ER) (human, UniProt P19235 25-250); test: MSD ECL multi-spot plate, antigen immobilized; Fab 1000 nM; blank spot 630
T1 construct: Purchased Fc chimera; also called EPO R/Fc; Epo R; not shown: Fc portion of the purchased chimera
T1 sequence: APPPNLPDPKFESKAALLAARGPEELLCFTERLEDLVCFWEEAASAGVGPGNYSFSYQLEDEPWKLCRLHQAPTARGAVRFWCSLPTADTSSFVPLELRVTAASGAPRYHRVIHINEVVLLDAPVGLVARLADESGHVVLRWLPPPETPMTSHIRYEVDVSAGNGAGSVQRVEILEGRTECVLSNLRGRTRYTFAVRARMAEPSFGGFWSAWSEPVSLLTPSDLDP

[2] = target: T2, Recombinant Human DLL4 (R&D Systems Cat#1506-D4/CF) (human, UniProt Q9NR61 27-524); test: as above
T2 construct: Purchased recombinant protein; also called delta-like protein 4

[3] = target: T3, rHuman ErbB2/Fc Chimera, CF (R&D Systems Cat#1129-ER) (human, UniProt P04626 23-652); test: as above
T3 construct: Purchased Fc chimera; also called HER2/neu; not shown: Fc portion of the purchased chimera

[4] = target: T4, rHuman EGF R/Fc Chimera, CF (R&D Systems Cat#344-ER) (human, UniProt P00533 25-645); test: as above
T4 construct: Purchased Fc chimera; not shown: Fc portion of the purchased chimera

[5] = target: T5, rHuman HGF R/c-MET/Fc Chimera, CF (R&D Systems Cat#358-MT/CF) (human, UniProt P08581 25-932); test: as above
T5 construct: Purchased Fc chimera; also called HGF R/Fc; not shown: Fc portion of the purchased chimera

[6] = target: T6, rHuman Notch-1/Fc Chimera, CF (R&D Systems Cat#3647-TK) (human, UniProt P46531 19-526); test: as above
T6 construct: Purchased Fc chimera; not shown: Fc portion of the purchased chimera

[7] = target: T7, rHuman Notch-1/Fc Chimera, CF (R&D Systems Cat#3647-TK) (human, UniProt P46531 19-526); test: MSD ECL titration, Fab 2383 nM, blank 344
T7 construct: Bought Fc chimera; Fc part of the bought chimera not given

[8] = target: T8, rHuman CD44/Fc Chimera, CF (R&D Systems Cat#3660-CD) (human, UniProt P16070 21-220); test: MSD ECL titration, Fab 2383 nM, blank 344
T8 construct: Bought Fc chimera; Fc part of the bought chimera not given

[9] = target: T9, rHuman IGF-1 sR (insulin-like growth factor-1 soluble receptor), CF (R&D Systems Cat#391-GR) (human, UniProt P08069 31-932); test: MSD ECL titration, Fab 2383 nM, blank 344
T9 construct: Bought soluble receptor; also called IGF-R1

[10] = target: T10, rHuman P-Cadherin/Fc Chimera, CF (R&D Systems Cat#861-PC) (human, UniProt P22223 108-654); test: MSD ECL titration, Fab 2383 nM, blank 344
T10 construct: Bought Fc chimera; Fc part of the bought chimera not given

[11] = target: T11, rHuman Erythropoietin R/Fc Chimera, CF (R&D Systems Cat#963-ER) (human, UniProt P19235 25-250); test: MSD ECL titration, Fab 2383 nM, blank 344
T11 construct: Bought Fc chimera; also called EPO R/Fc; EPOR; Fc part of the bought chimera not given
T11 sequence: T1 sequence

[12] = target: T12, Recombinant Human DLL4 (R&D Systems Cat#1506-D4/CF) (human, UniProt Q9NR61 27-524); test: MSD ECL titration, Fab 2383 nM, blank 344
T12 construct: Bought recombinant protein; also called rHuman DLL4; delta-like protein 4

[13] = target: T13, rHuman ErbB2/Fc Chimera, CF (R&D Systems Cat#1129-ER) (human, UniProt P04626 23-652); test: MSD ECL titration, Fab 2383 nM, blank 344
T13 construct: Bought Fc chimera; also called HER2/neu; Fc part of the bought chimera not given

[14] = target: T14, rHuman EGF R/Fc Chimera, CF (R&D Systems Cat#344-ER) (human, UniProt P00533 25-645); test: MSD ECL titration, Fab 2383 nM, blank 344
T14 construct: Bought Fc chimera; Fc part of the bought chimera not given

[15] = target: T15, rHuman HGF R/c-MET/Fc Chimera, CF (R&D Systems Cat#358-MT/CF) (human, UniProt P08581 25-932); test: MSD ECL titration, Fab 2383 nM, blank 344
T15 construct: Bought Fc chimera; also called HGF R/Fc; Fc part of the bought chimera not given

[16] = target: T7, rHuman Notch-1/Fc Chimera, CF (R&D …); test: MSD ECL titration, Fab 595.8 nM, blank 285
[17] = target: T8, rHuman CD44/Fc Chimera, CF (R&D Systems …); test: MSD ECL titration, Fab 595.8 nM, blank 285
[18] = target: T10, rHuman P-Cadherin/Fc Chimera, CF (R&D …); test: MSD ECL titration, Fab 595.8 nM, blank 285
[19] = target: T11, rHuman Erythropoietin R/Fc Chimera, CF …; test: MSD ECL titration, Fab 595.8 nM, blank 285
[20] = target: T14, rHuman EGF R/Fc Chimera, CF (R&D …); test: MSD ECL titration, Fab 595.8 nM, blank 285
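Further: blank spot per well as comparator with Hit at signal to blank ratio of 4 or more.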

ECL signal [1]: 1120 ECL signal | ECL signal [2]: 29600 ECL signal | ECL signal [3]: 1250 ECL signal | ECL signal [4]: 1030 ECL signal | ECL signal [5]: 1200 ECL signal | ECL signal [6]: 1180 ECL signal
B1: Fab VH5-51_IGHD5-18*01>3_IGHJ4*01_G100K & V3-4_IGLJ1*01 (Fab, V domains shown)
VH: EVQLVQSGAEVKKPGESLKISCKGSGYSFTSYWIGWVRQMPGKGLEWMGIIYPGDSDTRYSPSFQGQVTISADKSISTAYLQWSSLKASDTAMYYCARRKYSYGYDYFDYWGQGTLVTVSS
VL: QTVVTQEPSFSVSPGGTVTLTCGLSSGSVSTSYYPSWYQQTPGQAPRTLIYSTNTRSSGVPDRFSGSILGNKAALTITGAQADDESDYYCVLYMGSGISYVFGTGTKVTVL
notes: It was expressed as a Fab: CH1 with tags from Plasmid A and lambda CL from Plasmid E; also called Fab No. 22

ECL signal [7]: 690 | ECL signal [8]: 559 | ECL signal [9]: 527 | ECL signal [10]: 728 | ECL signal [11]: 658 | ECL signal [12]: 11800 | ECL signal [13]: 454 | ECL signal [14]: 621 | ECL signal [15]: 762 | ECL signal [16]: 306 | ECL signal [17]: 372 | ECL signal [18]: 617 | ECL signal [19]: 378 | ECL signal [20]: 403
B2: Fab VH1-46_IGHD6-6*01_IGHJ1*01 & L6_IGKJ1*01 (Fab, V domains shown)
VH: QVQLVQSGAEVKKPGASVKVSCKASGYTFTSYYMHWVRQAPGQGLEWMGIINPSGGSTSYAQKFQGRVTMTRDTSTSTVYMELSSLRSEDTAVYYCAREEYSSSSAEYFQHWGQGTLVTVSS
VL: not shown
notes: Expressed in E. coli as Fab: heavy chain with CH1 plus Flag and His tags from Plasmid A, kappa light chain constant region from Plasmid C; also called Fab No. 1
